Source: patent publication US20240192215A1 (E AND S HEALTHCARE, published 2024)

What was measured:
Assay in all cases: peptide microarray, 5 ug/mL
Peptide_004 = target: T1, Peptide_004 (human)
T1 construct: 15-mer on microarray; not native form, recombinant insert region
T1 peptide: AADVHSQHHHHHHHH
Experimental: (§1) 5, 1, 0.2, 0.04, 0.008 and 0.0016 μg/mL serial dilutions were incubated on a single multi-well microarray slide at 30° C. for 1 hour. The slide includes 21 individual mini-arrays (one mini-array per sample dilution).
(§2) DyLight 650 was used as a label. False-positive binding to a peptide was evaluated by performing one additional control incubation in which only a secondary antibody was applied on the same microarray slide. Before performing each step, the microarrays were washed with a washing buffer.

Peptide_005 = target: T2, Peptide_005 (human)
T2 construct: 15-mer on microarray; not native form, recombinant insert region
T2 peptide: ADVHSQHHHHHHHHV
Experimental: as §1, §2

Peptide_093 = target: T3, Peptide_093 (human)
T3 construct: 15-mer of hTrx1 on microarray
T3 peptide: TFQFFKKGQKVGEFS
Experimental: as §1, §2

Peptide_022 = target: T4, Peptide_022 (human)
T4 construct: 15-mer of hTrx1 on microarray
T4 peptide: IESKTAFQEALDAAG
Experimental: as §1, §2

Peptide_086 = target: T5, Peptide_086 (human)
T5 construct: 15-mer of hTrx1 on microarray
T5 peptide: CEVKCMPTFQFFKKG
Experimental: as §1, §2

Peptide_019 = target: T6, Peptide_019 (human)
T6 construct: 15-mer of hTrx1 on microarray
T6 peptide: VKQIESKTAFQEALD
Experimental: as §1, §2

Peptide_084 = target: T7, Peptide_084 (human)
T7 construct: 15-mer of hTrx1 on microarray
T7 peptide: SECEVKCMPTFQFFK
Experimental: as §1, §2

Peptide_012 = target: T8, Peptide_012 (human)
T8 construct: 15-mer on microarray; not native form, includes recombinant insert region
T8 peptide: HHHHHHHVKQIESKT
Experimental: as §1, §2

Peptide_020 = target: T9, Peptide_020 (human)
T9 construct: 15-mer of hTrx1 on microarray
T9 peptide: KQIESKTAFQEALDA
Experimental: as §1, §2

Peptide_025 = target: T10, Peptide_025 (human)
T10 construct: 15-mer of hTrx1 on microarray
T10 peptide: KTAFQEALDAAGDKL
Experimental: as §1, §2

Peptide_094 = target: T11, Peptide_094 (human)
T11 construct: 15-mer of hTrx1 on microarray
T11 peptide: FQFFKKGQKVGEFSG
Experimental: as §1, §2

Peptide_014 = target: T12, Peptide_014 (human)
T12 construct: 15-mer on microarray; not native form, includes recombinant insert region
T12 peptide: HHHHHVKQIESKTAF
Experimental: as §1, §2

Peptide_021 = target: T13, Peptide_021 (human)
T13 construct: 15-mer of hTrx1 on microarray
T13 peptide: QIESKTAFQEALDAA
Experimental: as §1, §2

Peptide_051 = target: T14, Peptide_051 (human)
T14 construct: 15-mer of hTrx1 on microarray
T14 peptide: PCKMIKPFFHSLSEK
Experimental: as §1, §2

Peptide_018 = target: T15, Peptide_018 (human)
T15 construct: 15-mer on microarray; not native form, includes recombinant insert region; also called HVKQIESKTAFQEAL
T15 peptide: HVKQIESKTAFQEAL
Experimental: as §1, §2

Peptide_092 = target: T16, Peptide_092 (human)
T16 construct: 15-mer of hTrx1 on microarray
T16 peptide: PTFQFFKKGQKVGEF
Experimental: as §1, §2

Peptide_015 = target: T17, Peptide_015 (human)
T17 construct: 15-mer on microarray; not native form, includes recombinant insert region
T17 peptide: HHHHVKQIESKTAFQ
Experimental: as §1, §2

Peptide_013 = target: T18, Peptide_013 (human)
T18 construct: 15-mer on microarray; not native form, includes recombinant insert region
T18 peptide: HHHHHHVKQIESKTA
Experimental: as §1, §2

Peptide_085 = target: T19, Peptide_085 (human)
T19 construct: 15-mer of hTrx1 on microarray
T19 peptide: ECEVKCMPTFQFFKK
Experimental: as §1, §2

Peptide_024 = target: T20, Peptide_024 (human)
T20 construct: 15-mer of hTrx1 on microarray
T20 peptide: SKTAFQEALDAAGDK
Experimental: as §1, §2

Peptide_095 = target: T21, Peptide_095 (human)
T21 construct: 15-mer of hTrx1 on microarray
T21 peptide: QFFKKGQKVGEFSGA
Experimental: as §1, §2

Peptide_023 = target: T22, Peptide_023 (human)
T22 construct: 15-mer of hTrx1 on microarray
T22 peptide: ESKTAFQEALDAAGD
Experimental: as §1, §2

B1: monoclonal antibody B266-1 (antibody, human IgG1)
light: QIVLTQSPAIMSASPGEKVTMTCSASSRISYMYWYQQKPGTSPKRWIYDTSKLASGVPARFSGSGSGTSYSLTISTMEAEDAATYYCHQRSSYPTFGAGTKLELKSVAAPSVFIFPPSDEQLKSGTASVVCLLNNFYPREAKVQWKVDNALQSGNSQESVTEQDSKDSTYSLSSTLTLSKADYEKHKVYACEVTHQGLSSPVTKSFNRGEC
heavy: not shown
notes: B266 with the Fc part changed to human IgG1; also called B266-1 (Trx1-hIgG1); B266-1 (hTrx1-hIgG1)
Peptide_004
  signal (blank-control = 1): 6.78
Peptide_005
  signal (blank-control = 1): 7.63

B2: monoclonal antibody B264 (antibody, mouse IgG1, kappa, V domains shown)
VH: QVQLQQSGAELARPGASVKMSCKASGYTFTSYTMHWVKQRPGQGLEWIGYINPTSDYTNYNQKFKDKATLTADKSSSTAYMQLSSLTSEDSAVYFCASEGGFLYYFDYWGQGTTLTVSS
VL: DVLMTQTPLSLPVSLGDQASISCRSSQSIVHSNGNTYLEWYLQKPGQSPKLLIYKVSNRFSGVPDRFSGSGSGTDFTLKISRVEAEDLGVYYCFQGSHVPYTFGGGTKLEIKR
notes: also called AB264; B264 (Trx1-mIgG1)
Peptide_093
  signal (blank-control = 1): 6.18
Peptide_022
  signal (blank-control = 1): 5.54
Peptide_086
  signal (blank-control = 1): 1.9
Peptide_019
  signal (blank-control = 1): 1.98
Peptide_084
  signal (blank-control = 1): 3.79
Peptide_012
  signal (blank-control = 1): 4.49
Peptide_020
  signal (blank-control = 1): 2.41
Peptide_025
  signal (blank-control = 1): 6.49
Peptide_094
  signal (blank-control = 1): 4.13
Peptide_014
  signal (blank-control = 1): 6.9
Peptide_021
  signal (blank-control = 1): 2.69
Peptide_051
  signal (blank-control = 1): 4.28
Peptide_018
  signal (blank-control = 1): 6.15
Peptide_092
  signal (blank-control = 1): 6.78
Peptide_015
  signal (blank-control = 1): 5.96
Peptide_013
  signal (blank-control = 1): 4.87
Peptide_085
  signal (blank-control = 1): 3.87
Peptide_024
  signal (blank-control = 1): 6.09
Peptide_095
  signal (blank-control = 1): 3.44
Peptide_023
  signal (blank-control = 1): 1.26
